Several values for one entry are separate records, joined by “and”; a condition that tells them apart may be missing. Equal values may be shown once.
Assays:
[1] = target: the molecule itself; test: SEC; size-exclusion chromatography of purified recombinant PFK isoforms, buffer and protein concentration not told in the main text (Supplementary Figure S2); tetramer to dimers
[2] = substrate: O=C(CO)[C@@H](O)[C@H](O)[C@H](O)COP(=O)(O)O; test: ALDO-TIM-G3PDH enzyme-linked kinetic assay, PFK-L; assay type: biochemical, human; settings: other: PFK-L; F6P titration, ATP 0.5 mM; n = 6; mean (SD); pH 7.4; 25.0 °C
Procedure: (§1) Recombinant human PFKs were expressed in PFK-deficient Saccharomyces cerevisiae and purified using the methods described previously, adapting earlier materials and protocols. Production of PFK intended for use in ATP titration experiments used 1 mM F6P as a tetramer stabilising agent in protein purification and storage buffers. Production of PFK intended for use in F6P titration experiments used 1 mM ATP as a tetramer stabilising agent in protein purification and storage buffers. Experimental details on the purification and characterisation procedures including figures showing SDS–PAGE gels of the highly pure PFKs used in the kinetic experiments described in this work have been recently published.
(§2) Assay buffer consisted of 50 mM TEA, 100 mM KCl, 10 mM MgCl2, 1 mM Tris(2-carboxyethyl)phosphine hydrochloride (TCEP), 10% glycerol, pH 7.4. Assay mix consisted of 5 units/ml glycerol-3-phosphate dehydrogenase (G3PDH, Sigma–Aldrich G6880), 2.5 units/ml aldolase (Sigma–Aldrich A2714), 25 units/ml triosephosphate isomerase (TIM, Sigma–Aldrich T6258), and 1.25 mM NADH. […] A SpectraMax M5 Multi-Mode Microplate Reader was used to measure A340nm at 13 s intervals for 10 min. […]
(§3) Time-dependent absorbance change was converted into rate of NADH oxidation (µM s^−1) or specific activity (µmol min^−1 mg protein^−1) using the Beer-Lambert law (molar extinction coefficient of NADH 6.22 mM^−1 cm^−1). […]

[3] = substrate: O=C(CO)[C@@H](O)[C@H](O)[C@H](O)COP(=O)(O)O; test: ALDO-TIM-G3PDH enzyme-linked kinetic assay, PFK-P; assay type: biochemical, human; settings: other: PFK-P; F6P titration, ATP 0.5 mM; n = 6; mean (SD); pH 7.4; 25.0 °C
Procedure: as §1, §2, §3

[4] = substrate: O=C(CO)[C@@H](O)[C@H](O)[C@H](O)COP(=O)(O)O; test: ALDO-TIM-G3PDH enzyme-linked kinetic assay, PFK-M; assay type: biochemical, human; settings: other: PFK-M; F6P titration, ATP 0.5 mM; n = 6; mean (SD); pH 7.4; 25.0 °C
Procedure: as §1, §2, §3

Row | Protein | binding result [1] | kcat [2] [s⁻¹] | kcat [3] [s⁻¹] | stoichiometry N [1] | kcat [4] [s⁻¹]
1 | human 6-phosphofructokinase-1-kinase, liver isoform (PFK-L) (enzyme, UniProt P17858 1-780, looked up, human phosphofructokinase, liver isoform (PFK-L), recombinant; Active form is a tetramer in equilibrium with dimers) MAAVDLEKLRASGAGKAIGVLTSGGDAQGMNAAVRAVTRMGIYVGAKVFLIYEGYEGLVEGGENIKQANWLSVSNIIQLGGTIIGSARCKAFTTREGRRAAAYNLVQHGITNLCVIGGDGSLTGANIFRSEWGSLLEELVAEGKISETTARTYSHLNIAGLVGSIDNDFCGTDMTIGTDSALHRIMEVIDAITTTAQSHQRTFVLEVMGRHCGYLALVSALASGADWLFIPEAPPEDGWENFMCERLGETRSRGSRLNIIIIAEGAIDRNGKPISSSYVKDLVVQRLGFDTRVTVLGHVQRGGTPSAFDRILSSKMGMEAVMALLEATPDTPACVVTLSGNQSVRLPLMECVQMTKEVQKAMDDKRFDEATQLRGGSFENNWNIYKLLAHQKPPKEKSNFSLAILNVGAPAAGMNAAVRSAVRTGISHGHTVYVVHDGFEGLAKGQVQEVGWHDVAGWLGRGGSMLGTKRTLPKGQLESIVENIRIYGIHALLVVGGFEAYEGVLQLVEARGRYEELCIVMCVIPATISNNVPGTDFSLGSDTAVNAAMESCDRIKQSASGTKRRVFIVETMGGYCGYLATVTGIAVGADAAYVFEDPFNIHDLKVNVEHMTEKMKTDIQRGLVLRNEKCHDYYTTEFLYNLYSSEGKGVFDCRTNVLGHLQQGGAPTPFDRNYGTKLGVKAMLWLSEKLREVYRKGRVFANAPDSACVIGLKKKAVAFSPVTELKKDTDFEHRMPREQWWLSLRLMLKMLAQYRISMAAYVSGELEHVTRRTLSMDKGF | binds | 5.38 |  |  | 
2 | human 6-phosphofructokinase-1-kinase, platelet isoform (PFK-P) (enzyme, UniProt Q01813 1-784, looked up, human phosphofructokinase, platelet isoform (PFK-P), recombinant; Active form is a tetramer in equilibrium with dimers) MDADDSRAPKGSLRKFLEHLSGAGKAIGVLTSGGDAQGMNAAVRAVVRMGIYVGAKVYFIYEGYQGMVDGGSNIAEADWESVSSILQVGGTIIGSARCQAFRTREGRLKAACNLLQRGITNLCVIGGDGSLTGANLFRKEWSGLLEELARNGQIDKEAVQKYAYLNVVGMVGSIDNDFCGTDMTIGTDSALHRIIEVVDAIMTTAQSHQRTFVLEVMGRHCGYLALVSALACGADWVFLPESPPEEGWEEQMCVKLSENRARKKRLNIIIVAEGAIDTQNKPITSEKIKELVVTQLGYDTRVTILGHVQRGGTPSAFDRILASRMGVEAVIALLEATPDTPACVVSLNGNHAVRLPLMECVQMTQDVQKAMDERRFQDAVRLRGRSFAGNLNTYKRLAIKLPDDQIPKTNCNVAVINVGAPAAGMNAAVRSAVRVGIADGHRMLAIYDGFDGFAKGQIKEIGWTDVGGWTGQGGSILGTKRVLPGKYLEEIATQMRTHSINALLIIGGFEAYLGLLELSAAREKHEEFCVPMVMVPATVSNNVPGSDFSIGADTALNTITDTCDRIKQSASGTKRRVFIIETMGGYCGYLANMGGLAAGADAAYIFEEPFDIRDLQSNVEHLTEKMKTTIQRGLVLRNESCSENYTTDFIYQLYSEEGKGVFDCRKNVLGHMQQGGAPSPFDRNFGTKISARAMEWITAKLKEARGRGKKFTTDDSICVLGISKRNVIFQPVAELKKQTDFEHRIPKEQWWLKLRPLMKILAKYKASYDVSDSGQLEHVQPWSV |  |  | 1.83 | 4 and 2 | 
3 | human 6-phosphofructokinase-1-kinase, muscle isoform (PFK-M) (enzyme, UniProt P08237 1-780, looked up, human phosphofructokinase, muscle isoform (PFK-M), recombinant; Active form is a tetramer in equilibrium with dimers) MTHEEHHAAKTLGIGKAIAVLTSGGDAQGMNAAVRAVVRVGIFTGARVFFVHEGYQGLVDGGDHIKEATWESVSMMLQLGGTVIGSARCKDFREREGRLRAAYNLVKRGITNLCVIGGDGSLTGADTFRSEWSDLLSDLQKAGKITDEEATKSSYLNIVGLVGSIDNDFCGTDMTIGTDSALHRIMEIVDAITTTAQSHQRTFVLEVMGRHCGYLALVTSLSCGADWVFIPECPPDDDWEEHLCRRLSETRTRGSRLNIIIVAEGAIDKNGKPITSEDIKNLVVKRLGYDTRVTVLGHVQRGGTPSAFDRILGSRMGVEAVMALLEGTPDTPACVVSLSGNQAVRLPLMECVQVTKDVTKAMDEKKFDEALKLRGRSFMNNWEVYKLLAHVRPPVSKSGSHTVAVMNVGAPAAGMNAAVRSTVRIGLIQGNRVLVVHDGFEGLAKGQIEEAGWSYVGGWTGQGGSKLGTKRTLPKKSFEQISANITKFNIQGLVIIGGFEAYTGGLELMEGRKQFDELCIPFVVIPATVSNNVPGSDFSVGADTALNTICTTCDRIKQSAAGTKRRVFIIETMGGYCGYLATMAGLAAGADAAYIFEEPFTIRDLQANVEHLVQKMKTTVKRGLVLRNEKCNENYTTDFIFNLYSEEGKGIFDSRKNVLGHMQQGGSPTPFDRNFATKMGAKAMNWMSGKIKESYRNGRIFANTPDSGCVLGMRKRALVFQPVAELKDQTDFEHRIPKEQWWLKLRPILKILAKYEIDLDTSDHAHLEHITRKRSGEAAV |  |  |  | 4 | 8.11

Source: paper PMC7702303, “Biochemical and transcript level differences between the three human phosphofructokinases show optimisation of each isoform for specific metabolic niches” (Biochemical Journal, 2020)
